Among the data in US20100003258A1 (AVEO PHARMACEUTICALS, published 2010) are Kd values, retold here.

The target in this experiment is T1, recombinant human FGFR3 IIIc Fc fusion protein (human, UniProt P22607 23-375).
T1 construct: Bought reagent; also called rhFGFR3 IIIc Fc; not shown: Fc fragment (removable by Factor Xa)
T1 sequence (looked up): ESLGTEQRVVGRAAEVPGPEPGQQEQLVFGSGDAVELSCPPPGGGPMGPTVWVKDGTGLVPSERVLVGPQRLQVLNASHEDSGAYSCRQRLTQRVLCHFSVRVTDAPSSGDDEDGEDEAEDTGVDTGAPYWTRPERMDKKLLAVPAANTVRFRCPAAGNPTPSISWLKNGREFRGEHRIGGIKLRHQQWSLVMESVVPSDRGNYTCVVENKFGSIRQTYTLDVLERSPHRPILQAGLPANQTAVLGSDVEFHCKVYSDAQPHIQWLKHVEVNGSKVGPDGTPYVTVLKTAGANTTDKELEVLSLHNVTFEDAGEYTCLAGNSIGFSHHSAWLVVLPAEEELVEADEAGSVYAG
The experiment in a line: kinetic exclusion assay (KinExA), antibody and rhFGFR3 IIIc Fc in solution, room temperature. As to the method:
The binding affinities of monoclonal 15D8, chimeric 15D8, and humanized 15D8 antibodies for recombinant human FGFR3 IIIc Fc fusion protein was measured using a kinetic exclusion assay, KinExA® technology (Sapidyne Instruments, Inc.). First, beads were prepared for the purpose of detecting anti-FGFR3 antibody that is unbound to FGFR3 IIIc Fc. This was done by adding 1 ml recombinant human FGFR3IIIc Fc (R&D Systems, Inc.) 10 ug/ml in PBS to 200 mg polymethyl methacrylate (PMMA) hard beads. The suspension was mixed and rotated for two hours at room temperature. Next, the mixture was centrifuged and supernatant was discarded. The bead pellet was rinsed once with 1 ml BSA 10 mg/ml in PBS by incubation for 1 hour at room temperature with rotation. The beads were resuspended in 27 ml PBS with 0.02% NaN₃. Next, a fixed concentration of anti-FGFR3 antibody (0.5 nM) was incubated in solution with a series of FGFR3 IIIc Fc concentrations (started with 50 nM (in PBS BSA (1 mg/ml)) and serially diluted 1:2 in PBS BSA(1 mg/ml) to obtain 50 to 0.0122 nM FGFR3 III Fc) at room temperature for at least 4 hours to allow equilibrium to be reached. By measuring the amount of anti-FGFR3 antibody that is not bound to FGFR3 IIIc Fc, the KD was determined. Unbound anti-FGFR3 antibody was detected by allowing the anti-FGFR3 antibody/FGFR3 IIIc Fc solution to flow through the FGFR3 IIIc Fc PMMA beads. The anti-FGFR3 antibody captured by these beads was then detected with Cy5-conjugated anti-human secondary antibody 0.3 ug/ml (Jackson ImmunoResearch) or Cy5-conjugated anti-mouse secondary antibody (Jackson ImmunoResearch) 0.5 ug/ml in PBS BSA 1 mg/ml. The detected signal for captured anti-FGFR3 antibody is directly proportional to the remaining free binding sites, thus allowing KD determination. The experiments were repeated, varying the concentrations of anti-FGFR3 antibody or FGFR3 III Fc used in solution, and the KD was calculated with the KinExA® software using n-curve analysis.
In general terms: Kinetic exclusion samples the free partner from a solution-phase mixture.

B1: Humanized 15D8 (antibody, human IgG1, kappa, V domains shown)
VH: EVQLVQSGAEVKKPGESLKISCKGSGYSFTSYNMYWVRQMPGKGLEWMGYIDPYNGGTSYNQKFKGKATLTVDKSISTAYLQWSSLKASDTAMYYCAREGGNYEAWFAYWGQGTLVTVSS
VL: DIQLTQSPSSLSASVGDRVTITCSASSSVSYMYWFQQKPGKAPKPLIYLTSYLASGVPSRFSGSGSGTDFTLTISSLQPEDFATYYCQQWSSYPLTFGGGTKVEIKR
notes: Humanized variable regions with human IgG1 and human kappa constant regions; made in 293T cells; also called Hu15D8; humanized 15D8 antibody
As a reminder, the Kd is a measure of binding affinity in units of concentration. In the case of B1, the dissociation constant (Kd) is 0.0772 nM.
